Data reported in patent publication US20200263158.

Experiments:
[1] = test system: blue casein (zymogram gel substrate)
[2] = molecular target: T1, tau 4R2N peptide (amino acids 335-353)
T1 chain: GQVEVKSEKLDFKDRVQSK

[3] = molecular target: T2, tau FRET peptide OP-002, MCA-GGQVEVKSE{Lys(DNP)}
T2 chain: GGQVEVKSE

In the case of “recombinant human tau 4R2N (full-length tau protein)”, the “autoproteolysis, N-terminal Edman sequencing of fragment F3” value is reported as “The N-terminal sequence of fragment F3 was determined to be SEKLDF corresponding to amino acids 341-346 of Tau 4R2N”, the “autoproteolysis, N-terminal Edman sequencing of fragments 1-4” value is reported as “The N-terminal sequence of the four fragments was the same: SKDGTG” and the “zymogram, clearing of blue casein” value [1] is reported as “tau had the ability to cut the casein protein substrate in the zymogram”.

B1: TP-210 (Tau 4R2N 131-340) (protein)
chain: MSKDGTGSDDKKAKGADGKTKIATPRGAAPPGQKGQANATRIPAKTPPAPKTPPSSGEPPKSGDRSGYSSPGSPGTPGSRSRTPSLPTPPTREPKKVAVVRTPPKSPSSAKSRLQTAPVPMPDLKNVKSKIGSTENLKHQPGGGKVQIINKKLDLSNVQSKCGSKDNIKHVPGGGSVQIVYKPVDLSKVTSKCGSLGNIHHKPGGGQVEVK
In the case of B1, the “cleavage of peptide substrate, reverse-phase HPLC” value [2] is reported as “intact peptide was greatly diminished in the upper trace and replaced with two smaller peaks F1 and F2 that represent fragments generated by TP-210”.

B2: Tau 4R2N 260-340 (TP-81) (protein)
chain: MIGSTENLKHQPGGGKVQIINKKLDLSNVQSKCGSKDNIKHVPGGGSVQIVYKPVDLSKVTSKCGSLGNIHHKPGGGQVEVK
With B2 the “fluorescence of FRET peptide, plate reader” value [3] was “Tau 4R2N 260-340 cuts tau FRET peptide”.

B3: TP-99 (Tau 4R2N 241-340) (protein)
chain: MRLQTAPVPMPDLKNVKSKIGSTENLKHQPGGGKVQIINKKLDLSNVQSKCGSKDNIKHVPGGGSVQIVYKPVDLSKVTSKCGSLGNIHHKPGGGQVEVK
With B3 the “cleavage of peptide substrate, reverse-phase HPLC” value [2] was “intact peptide which is greatly diminished in the upper trace and replaced with two smaller peaks F1 and F2 that represent fragments generated by TP-99”.
